What all share (assay): cell-based or functional assay
For experiment [1], the target named is CXCR2 on SAK cells (human) (UniProt P25025).
Experiment [2] concerns the target CXCR3 on SAK cells (human) (UniProt P49682).
Experiment [3] addresses MHC class I on MV411 cells (human).

The record followed here is patent US20240307536A1.

Some results are limits rather than exact numbers.

Sequence of UniProt P49682 (P49682 whole entry): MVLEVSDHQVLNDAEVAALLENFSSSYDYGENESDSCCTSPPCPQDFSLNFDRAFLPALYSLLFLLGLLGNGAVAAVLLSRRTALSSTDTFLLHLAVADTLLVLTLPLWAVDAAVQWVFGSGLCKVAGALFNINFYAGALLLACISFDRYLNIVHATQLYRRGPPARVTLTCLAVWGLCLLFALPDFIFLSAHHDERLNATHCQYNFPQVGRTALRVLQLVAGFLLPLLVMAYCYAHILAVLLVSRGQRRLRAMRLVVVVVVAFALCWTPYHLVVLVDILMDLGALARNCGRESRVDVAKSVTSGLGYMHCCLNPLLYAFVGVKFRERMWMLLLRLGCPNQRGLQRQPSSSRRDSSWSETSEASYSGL
Sequence of UniProt P25025 (P25025 whole entry): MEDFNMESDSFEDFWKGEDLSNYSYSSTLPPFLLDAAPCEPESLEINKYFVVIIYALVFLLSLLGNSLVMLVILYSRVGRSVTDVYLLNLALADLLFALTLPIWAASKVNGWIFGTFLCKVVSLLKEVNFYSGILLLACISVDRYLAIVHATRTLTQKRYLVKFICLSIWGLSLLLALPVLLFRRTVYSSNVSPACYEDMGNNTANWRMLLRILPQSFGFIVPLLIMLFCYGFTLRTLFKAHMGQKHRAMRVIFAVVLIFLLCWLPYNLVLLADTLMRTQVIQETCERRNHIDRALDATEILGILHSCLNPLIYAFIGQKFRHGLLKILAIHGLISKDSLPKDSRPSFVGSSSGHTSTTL

In experiment [1], “rhIL-8 (PeproTech EC) (from UniProt P10145 28-99) (ligand)” gave a Transwell migration of SAK cells within four hours, percentage of the input cells (100 ng/mL IL-8) of 3%.

In turn, “IP-10 (PeproTech EC) (from UniProt P02778 22-98) (ligand)” came in with a Transwell migration of SAK cells within four hours, percentage of the input cells (500 ng/ml IP-10) in experiment [2] of 30%. “anti-MHC I antibody (W6/32 clone, Biolegend)”: the cytotoxic activity of SAK cells against MV411 cells kept in the presence of 1 ug/ml anti-MHC I antibody, CFSE-based cytotoxicity assay in experiment [3] was more than 40%.
